Literature values, collected in publication PMC8073936.

Target: TRF1 (Homo sapiens) (UniProt P54274)
Chain of UniProt P54274 (P54274 2-439): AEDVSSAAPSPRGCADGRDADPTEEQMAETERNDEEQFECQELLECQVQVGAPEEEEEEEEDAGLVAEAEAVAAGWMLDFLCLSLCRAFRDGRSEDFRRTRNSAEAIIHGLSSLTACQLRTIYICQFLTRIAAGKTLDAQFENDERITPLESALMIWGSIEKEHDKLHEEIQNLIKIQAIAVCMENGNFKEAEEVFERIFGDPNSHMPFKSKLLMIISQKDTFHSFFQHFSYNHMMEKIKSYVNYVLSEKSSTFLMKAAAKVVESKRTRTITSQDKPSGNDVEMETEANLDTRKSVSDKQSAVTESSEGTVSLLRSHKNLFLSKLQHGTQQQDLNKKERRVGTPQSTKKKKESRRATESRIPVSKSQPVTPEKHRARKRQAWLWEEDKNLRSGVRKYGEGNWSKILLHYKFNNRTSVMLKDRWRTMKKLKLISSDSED

## Ku70/80 (from UniProt P12956)
  Kd: 0.4 nM
